The values below come from patent US20110124571A1 (INSTITUT PASTEUR, published 2011).

The target of this assay is Recombinant human NEP (neutral endopeptidase, EC 3.4.24.11), devoid of its N-terminal cytosol and … (human, UniProt P08473 52-750). In words: cell-based or functional assay.
Sequence of Recombinant human NEP (neutral endopeptidase, EC 3.4.24.11), devoid of its N-terminal cytosol and … (P08473 52-750): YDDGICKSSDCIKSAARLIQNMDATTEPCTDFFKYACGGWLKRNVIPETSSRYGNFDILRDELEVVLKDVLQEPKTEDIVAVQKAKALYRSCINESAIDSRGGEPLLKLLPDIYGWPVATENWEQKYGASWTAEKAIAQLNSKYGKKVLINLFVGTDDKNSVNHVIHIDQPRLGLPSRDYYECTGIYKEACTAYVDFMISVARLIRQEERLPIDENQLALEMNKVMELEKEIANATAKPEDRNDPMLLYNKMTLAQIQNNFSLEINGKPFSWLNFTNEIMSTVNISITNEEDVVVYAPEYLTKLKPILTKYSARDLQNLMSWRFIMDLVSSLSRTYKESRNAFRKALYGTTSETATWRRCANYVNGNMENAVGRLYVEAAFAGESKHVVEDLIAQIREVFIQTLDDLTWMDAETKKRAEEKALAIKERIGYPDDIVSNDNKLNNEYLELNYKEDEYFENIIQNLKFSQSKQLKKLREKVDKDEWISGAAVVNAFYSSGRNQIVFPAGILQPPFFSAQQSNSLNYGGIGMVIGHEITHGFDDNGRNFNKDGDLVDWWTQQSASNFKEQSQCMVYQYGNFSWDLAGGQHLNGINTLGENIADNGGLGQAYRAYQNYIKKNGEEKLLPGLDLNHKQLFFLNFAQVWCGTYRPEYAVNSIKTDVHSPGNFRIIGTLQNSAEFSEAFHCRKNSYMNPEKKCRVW

As for CQRFSR (spacer -HN-(CH2)6-CO- (amino-hexanoic-acid) between Cys and Gln) [NH2-C-(C6-polyethylene)QRFSR-COOH], the “IC50, inhibition of Abz-dR-G-L-EDDnp cleavage by rhNEP (endopeptidase activity)” value worked out at 40 µM.
